# B1: Snu114^72-1008 (isolated) (Saccharomyces cerevisiae S288C) (protein)
# chain: KEVEVLMETKNTQSPQTPLVEPVTERTKLQEHTIFTQLKKNIPKTRYNRDYMLSMANIPERIINVGVIGPLHSGKTSLMDLLVIDSHKRIPDMSKNVELGWKPLRYLDNLKQEIDRGLSIKLNGSTLLCTDLESKSRMINFLDAPGHVNFMDETAVALAASDLVLIVIDVVEGVTFVVEQLIKQSIKNNVAMCFVINKLDRLILDLKLPPMDAYLKLNHIIANINSFTKGNVFSPIDNNIIFASTKLGFTFTIKEFVSYYYAHSIPSSKIDDFTTRLWGSVYYHKGNFRTKPFENVEKYPTFVEFILIPLYKIFSYALSMEKDKLKNLLRSNFRVNLSQEALQYDPQPFLKHVLQLIFRQQTGLVDAITRCYQPFELFDNKTAHLSIPGKSTPEGTLWAHVLKTVDYGGAEWSLVRIYSGLLKRGDTVRILDTSQSESRQKRQLHDISKTETSNEDEDEDDETPSCEVEEIGLLGGRYVYPVHEAHKGQIVLIKGISSAYIKSATLYSVKSKEDMKQLKFFKPLDYITEAVFKIVLQPLLPRELPKLLDALNKISKYYPGVIIKVEESGEHVILGNGELYMDCLLYDLRASYAKIEIKISDPLTVFSESCSNESFASIPVSNSISRLGEENLPGLSISVAAEPMDSKMIQDLSRNTLGKGQNCLDIDGIMDNPRKLSKILRTEYGWDSLASRNVWSFYNGNVLINDTLPDEISPELLSKYKEQIIQGFYWAVKEGPLAEEPIYGVQYKLLSISVPSDVNIDVMKSQIIPLMKKACYVGLLTAIPILLEPIYEVDITVHAPLLPIVEELMKKRRGSRIYKTIKVAGTPLLEVRGQVPVIESAGFETDLRLSTNGLGMCQLYFWHKIWRKVPGDVLDKDAFIPKLKPAPINSLSRDFVMKTRRRKGISTGGFMSNDGPTLEKYISAELYAQLRENGLVP
# notes: residues 72-1008 (acidic N-terminal region truncated), C-terminal Strep tag (pIDS-C-Strep), synthetic gene, recombinant in insect cells (MultiBac)
# Substrate: Nc1nc2c(ncn2[C@@H]2O[C@H](COP(=O)(O)OP(=O)(O)OP(=O)(O)O)[C@@H](O)[C@H]2O)c(=O)[nH]1
# Experiment: purified protein
# Assay type: biochemical, Saccharomyces cerevisiae
# Conditions: pH 8.0, 300 mM NaCl, 5 mM MgCl2, 30°C, labelled compound, Snu114 without Prp8
protein,measurement,value
B1,Km,578.4 µM
same,kcat,0.001012 s⁻¹
